Residue numbers refer to the chain shown, from its start.

Experimental findings from patent US20220251228A1 (SHANGHAI HANSOH BIOMEDICAL, published 2022) are described below.

The target of this experiment is T1, human BCMA on NCI-H929 tumor cells (human, UniProt Q02223 1-184).
T1 sequence (looked up): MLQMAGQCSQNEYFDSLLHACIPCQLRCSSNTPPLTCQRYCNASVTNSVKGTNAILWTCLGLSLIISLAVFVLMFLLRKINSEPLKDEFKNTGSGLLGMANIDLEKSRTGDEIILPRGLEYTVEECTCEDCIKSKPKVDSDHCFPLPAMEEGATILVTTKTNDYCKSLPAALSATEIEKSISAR
The experiment is described as follows: cell-based or functional assay.

B1: humanized anti-BCMA antibody Ab2 (antibody, human IgG1, kappa, V domains shown)
VH: QVQLVQSGAEVKKPGASVKVSCKASGYSFSDYEMHWVRQAPGQGLEWIGGIHPGSGGSAYNQKFKGRVTLTVDKSTSTAYMELSSLRSEDTAVYYCTRLDYGYSWAWFPYWGQGTLVTVSA
VL: EIVLTQSPATLSLSPGERATLSCSASSSVIYMNWYQQKPGQSPKIWIYGISNLASGVPARFSGSGSGTDFTLTISSLEPEDFAVYYCQQRSSYPLTFGGGTKVEIKR
For B1, the “Endocytosis efficiency % (0.5 hour)” value amounted to 36.7% and the “Endocytosis efficiency % (2 hours)” value turned out to be 48%.

B2: humanized anti-BCMA antibody Ab3 (antibody, human IgG1, kappa, V domains shown)
VH: B1 VH with R67K, V68A
VL: B1 VL with V3L, S22T, Q41S, D69S
Turning to B2, the “Endocytosis efficiency % (0.5 hour)” value came to 35.5% and the “Endocytosis efficiency % (2 hours)” value came to 45.7%.

B3: humanized anti-BCMA antibody Ab1 (antibody, human IgG1, kappa, V domains shown)
VH: B1 VH with I48M, L70M, V72R, K74T, A79V
VL: B1 VL with S42A, K44R, I45L, W46L, V57I
Consider B3, for which the “Endocytosis efficiency % (0.5 hour)” value is 36.6% and the “Endocytosis efficiency % (2 hours)” value amounted to 49.5%.
